Measurements reported in the RNAGym collection of RNA variant scans (doi:10.1021/acssynbio.7b00057).

B1: Pistol ribozyme (parent)
chain: GGGUCGUUGUUCCAUAAUCGCGUGGAUAUGGCACGCAAGUUUCUACCGGGCACCGUAAAUGUCCGACUGGAGCCGUUCGGGCGGCUAUAAACAGACCUCAGGCCCGAAGCGUGGCGGCACCUGCCGCCGGUGGUAAAAAAGAUCGGAAGAGCACACGUCU

Variants of: B1
Assay: aptazyme ON/OFF ratio, guanine; higher = stronger switching; co-transcriptional cleavage with and without guanine

Row | Variant | aptazyme ON/OFF ratio
1 | U7G U10C U11A C12A C13U | 1.16
2 | U7G U10C U11A C12A C13G | 1.06
3 | U7G U10C U11A C12A C13A | 1.17
4 | U7G U10A U11A C12U C13A | 1.09
5 | U7G U10A U11A C12U C13G | 1.13
6 | U7G U10A U11A C12U C13U | 1.16
7 | U7G U8G U10C U11A C12U C13U | 1.31
8 | U7G U8G U10C U11A C12U C13A | 1.37
9 | U7G U8G U10C U11A C12U C13G | 1.37
10 | U7G U10C | 1.5
11 | U7G U10G | 1.42
12 | U7G U10A | 1.18
13 | U7G U8G U10G U11G C12U | 1.36
14 | U7G U8G U10G U11G C12G | 1.26
15 | U7G U8G U10G U11G C12A | 1.23
16 | U7G U8G U10G | 1.37
17 | U7G U10C C12U C13A | 1.04
18 | U7G U10C C12U C13G | 1.06
19 | U7G U10C C12U C13U | 1.07
20 | U7G U8G U11G | 2.52
21 | U7G U8G U11A | 1.67
22 | U7G U8G U11C | 1.35
23 | U7G U8G U11A C12U | 1.38
24 | U7G U8G U11A C12G | 1.43

Row | Variant | aptazyme ON/OFF ratio
25 | U7G U8G U11A C12A | 1.36
26 | U7G U8G U10C U11G C12G C13A | 1.19
27 | U7G U8G U10C U11G C12G C13G | 1.41
28 | U7G U8G U10C U11G C12G C13U | 1.32
29 | U7G U10C U11G C12A C13G | 1.07
30 | U7G U10C U11G C12A C13A | 1.11
31 | U7G U10C U11G C12A C13U | 1.11
32 | U7G U8G U11A C12A C13U | 1.15
33 | U7G U8G U11A C12A C13G | 1.02
34 | U7G U8G U11A C12A C13A | 1.34
35 | U7G U8G U10C U11A C12A C13A | 1.08
36 | U7G U8G U10C U11A C12A C13U | 1.14
37 | U7G U8G U10C U11A C12A C13G | 1.12
38 | U7G U8G U11C C12G C13U | 1.33
39 | U7G U8G U11C C12G C13A | 1.33
40 | U7G U8G U11C C12G C13G | 1.23
41 | U7G U10C U11G C13A | 1.08
42 | U7G U10C U11G C13U | 1.14
43 | U7G U10C U11G C13G | 1.09
44 | U7G U8G U10G C12U C13A | 1
45 | U7G U8G U10G C12U C13U | 1.32
46 | U7G U8G U10G C12U C13G | 1.04
47 | U7G U8G U11A C13U | 1.24
48 | U7G U8G U11A C13A | 1.5

Row | Variant | aptazyme ON/OFF ratio
49 | U7G U8G U11A C13G | 1.24
50 | U7G U10A U11A C13G | 1.11
51 | U7G U10A U11A C13A | 1.14
52 | U7G U10A U11A C13U | 1.11
53 | U7G U10G C13U | 1.17
54 | U7G U10G C13A | 1.29
55 | U7G U10G C13G | 1.13
56 | U7G U10G U11A C12U C13A | 1.1
57 | U7G U10G U11A C12U C13U | 1.08
58 | U7G U10G U11A C12U C13G | 1.16
59 | U7G U8G U10G U11A C12G C13G | 1.44
60 | U7G U8G U10G U11A C12G C13A | 1.28
61 | U7G U8G U10G U11A C12G C13U | 1.47
62 | U7G U8G U10C U11G C12U C13A | 1.16
63 | U7G U8G U10C U11G C12U C13U | 1.41
64 | U7G U8G U10C U11G C12U C13G | 1.52
65 | U7G U10G C12G C13A | 1.21
66 | U7G U10G C12G C13G | 1.07
67 | U7G U10G C12G C13U | 1.12
68 | U7G U8G U10C C12A C13G | 1.27
69 | U7G U8G U10C C12A C13U | 1.28
70 | U7G U8G U10C C12A C13A | 1.45
71 | U7G U10G C12U C13A | 1.18
72 | U7G U10G C12U C13G | 1.24

Row | Variant | aptazyme ON/OFF ratio
73 | U7G U10G C12U C13U | 1.43
74 | U7G U10C U11C C13U | 1.05
75 | U7G U10C U11C C13G | 1.01
76 | U7G U10C U11C C13A | 1.06
77 | U7G U10A U11A C12G C13A | 1.05
78 | U7G U10A U11A C12G C13G | 1.16
79 | U7G U10A U11A C12G C13U | 1.16
80 | U7G U8G U10C U11G C12A C13A | 1.15
81 | U7G U8G U10C U11G C12A C13U | 1.22
82 | U7G U8G U10C U11G C12A C13G | 1.16
83 | U7G U8G U10C U11C C13U | 1.12
84 | U7G U8G U10C U11C C13G | 1.07
85 | U7G U8G U10C U11C C13A | 1.07
86 | U7G U8G U11C C12G | 1.15
87 | U7G U8G U11C C12A | 1.31
88 | U7G U8G U11C C12U | 1.37
89 | U7G U8G U10G U11C C13A | 1.02
90 | U7G U8G U10G U11C C13G | 1.29
91 | U7G U8G U10G U11C C13U | 1.15
92 | U7G U8G U10G U11C C12G C13A | 1.29
93 | U7G U8G U10G U11C C12G C13G | 1.25
94 | U7G U8G U10G U11C C12G C13U | 1.4
95 | U7G U10A U11A C12U | 1.16
96 | U7G U10A U11A C12G | 1.1

Row | Variant | aptazyme ON/OFF ratio
97 | U7G U10A U11A C12A | 1.07
98 | U7G U10C U11C C12G | 1.13
99 | U7G U10C U11C C12A | 1.1
100 | U7G U10C U11C C12U | 1.12
101 | U7G U10A U11G C13A | 1.16
102 | U7G U10A U11G C13U | 1.22
103 | U7G U10A U11G C13G | 1.14
104 | U7G U10C U11G C12A | 1.12
105 | U7G U10C U11G C12U | 1.2
106 | U7G U10C U11G C12G | 1.15
107 | U7G U8G U10C U11A C13A | 1.38
108 | U7G U8G U10C U11A C13G | 1.38
109 | U7G U8G U10C U11A C13U | 1.47
110 | U7G U8G U10G U11A C12A | 1.18
111 | U7G U8G U10G U11A C12G | 1.43
112 | U7G U8G U10G U11A C12U | 1.36
113 | U7G U10G U11A C12A C13U | 1.08
114 | U7G U10G U11A C12A C13A | 1.14
115 | U7G U10G U11A C12A C13G | 1.09
116 | U7G U10A U11C C13G | 1.02
117 | U7G U10A U11C C13A | 1.04
118 | U7G U10A U11C C13U | 1.02
119 | U7G U8G U11C C12A C13G | 1.15
120 | U7G U8G U11C C12A C13U | 1.26

Row | Variant | aptazyme ON/OFF ratio
121 | U7G U8G U11C C12A C13A | 1.42
122 | U7G U10A U11C C12U C13U | 1.08
123 | U7G U10A U11C C12U C13A | 1.12
124 | U7G U10A U11C C12U C13G | 1.05
125 | U7G U8G U10C C12G C13U | 1.33
126 | U7G U8G U10C C12G C13A | 1.4
127 | U7G U8G U10C C12G C13G | 1.54
128 | U7G U10C U11G C12U C13U | 1.18
129 | U7G U10C U11G C12U C13A | 1.11
130 | U7G U10C U11G C12U C13G | 1.13
131 | U7G U10C U11A C12G C13A | 1.07
132 | U7G U10C U11A C12G C13U | 1.06
133 | U7G U10C U11A C12G C13G | 1.11
134 | U7G U10A U11C C12G | 1.3
135 | U7G U10A U11C C12A | 1.16
136 | U7G U10A U11C C12U | 1.05
137 | U7G U10A C12G C13G | 1.2
138 | U7G U10A C12G C13U | 1.17
139 | U7G U10A C12G C13A | 1.15
140 | U7G U8G U10G U11A C12A C13G | 1.31
141 | U7G U8G U10G U11A C12A C13U | 1.23
142 | U7G U8G U10G U11A C12A C13A | 1.17
143 | U7G U8G U10C U11C C12G C13A | 1.24
144 | U7G U8G U10C U11C C12G C13U | 1.45

Row | Variant | aptazyme ON/OFF ratio
145 | U7G U8G U10C U11C C12G C13G | 1.2
146 | U7G U8G U10G C12A C13G | 1.19
147 | U7G U8G U10G C12A C13A | 1.51
148 | U7G U8G U10G C12A C13U | 1.4
149 | U7G U8G U10G U11A C12U C13G | 1.17
150 | U7G U8G U10G U11A C12U C13U | 1.17
151 | U7G U8G U10G U11A C12U C13A | 1.33
152 | U7G U8G U10G U11C C12A C13U | 1.46
153 | U7G U8G U10G U11C C12A C13G | 1.3
154 | U7G U8G U10G U11C C12A C13A | 1.53
155 | U7G U8G U11C C13U | 1.25
156 | U7G U8G U11C C13A | 1.41
157 | U7G U8G U11C C13G | 1.27
158 | U7G U10C C12A C13A | 1.1
159 | U7G U10C C12A C13U | 1.12
160 | U7G U10C C12A C13G | 1.1
161 | U7G U10C U11A C13U | 1.16
162 | U7G U10C U11A C13G | 1.06
163 | U7G U10C U11A C13A | 1.08
164 | U7G U8G U11A C12U C13A | 1.56
165 | U7G U8G U11A C12U C13G | 1.36
166 | U7G U8G U11A C12U C13U | 1.15
167 | U7G U10C U11A C12U C13A | 1.12
